Source: paper PMC4825019
Where two headings read alike, the source gives them in different places.

Assays:
[1] = molecular target: synaptophysin (endogenous) (mouse (endogenous in C57BL/6 brain)) (UniProt Q62277); test: co-IP; reverse co-IP from dephosphorylated wild-type mouse brain lysate (neither heated nor dialyzed) with antibodies for synaptophysin, β-synuclein or apoA1; blot probed with Dako Tau antibody, the three Tau isoforms quantified with ImageJ
[2] = molecular target: β-synuclein (endogenous) (mouse (endogenous in C57BL/6 brain)) (UniProt Q91ZZ3); test: as above
[3] = molecular target: β-synuclein (endogenous) (mouse (endogenous in C57BL/6 brain)) (UniProt Q91ZZ3); test: as above; remark: listed apart in the source
[4] = molecular target: recombinant 2N Tau (Mtau2310, 2N4R, with N-terminal GST tag) (murine); test: ELISA; plates coated overnight at 4 °C with recombinant 0N, 1N or 2N Tau at 10 μg/ml in PBS, blocked with 3% BSA; recombinant β-synuclein and synaptophysin at 10 μg/ml in PBS for 1 h at room temperature, detected with anti-V5; recombinant apoA1 detected with an anti-apoA1 antibody; absorbance at 450 nm after subtraction of BSA-coated wells
[5] = molecular target: recombinant 1N Tau (Mtau210, 1N4R, with N-terminal GST tag) (murine); test: as above

Chain of UniProt Q62277 (Q62277 whole entry, canonical isoform): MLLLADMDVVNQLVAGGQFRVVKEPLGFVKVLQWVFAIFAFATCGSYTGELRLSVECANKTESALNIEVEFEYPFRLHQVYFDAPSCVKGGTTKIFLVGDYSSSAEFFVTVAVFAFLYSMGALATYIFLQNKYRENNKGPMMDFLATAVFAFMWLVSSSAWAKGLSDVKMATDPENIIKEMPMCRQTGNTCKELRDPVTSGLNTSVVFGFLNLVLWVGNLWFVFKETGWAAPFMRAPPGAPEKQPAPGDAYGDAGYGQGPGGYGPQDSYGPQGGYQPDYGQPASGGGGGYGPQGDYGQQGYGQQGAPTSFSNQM

ratio to 0N Tau (Western blot of the reverse IP) [1] | ratio to 0N Tau (Western blot of the reverse IP) [2] | ratio to 0N Tau (Western blot of the reverse IP) [3] | ratio to 0N Tau (ELISA absorbance) [4] | ratio to 0N Tau (ELISA absorbance) [5] | Substance
0.97 | 0.41 | 0.897 |  |  | 1N Tau (endogenous) (natural protein)
0.93 | 0.37 | 0.5 |  |  | 2N Tau (endogenous) (natural protein)
 |  |  | 0.26 | 0.63 | recombinant β-synuclein (C-terminal His6 and V5 tag) (from UniProt Q91ZZ3 1-133) (natural protein)
